Test results: patent publication US20170052184A1
Like-named read-outs stand apart in the source and are kept apart here.

Assays:
[1] = molecular target: 92-133 biotin labeled HCV core peptide (hepatitis C virus) (UniProt P26664)
[2] = molecular target: C113T109N biotin labeled HCV core peptide (hepatitis C virus)
[3] = molecular target: Mut1T110N biotin labeled HCV core peptide (hepatitis C virus)
[4] = molecular target: Mut6T110S biotin labeled HCV core peptide (hepatitis C virus)
[5] = molecular target: 92-133 biotin labeled HCV core peptide (hepatitis C virus) (UniProt P26664); test: EIA; Ab 250 ng/mL captured on anti-mouse Fc; bt-peptide 500 ng/mL
[6] = molecular target: C113T109N biotin labeled HCV core peptide (hepatitis C virus); test: as above
[7] = molecular target: Mut1T110N biotin labeled HCV core peptide (hepatitis C virus); test: as above
[8] = molecular target: Mut6T110S biotin labeled HCV core peptide (hepatitis C virus); test: as above
[9] = molecular target: Mut1T110N biotin labeled HCV core peptide (hepatitis C virus); test: EIA; Ab 1000 ng/mL captured on anti-mouse Fc; bt-peptide 500 ng/mL
[10] = molecular target: Mut6T110S biotin labeled HCV core peptide (hepatitis C virus); test: as above
[11] = molecular target: 92-133 biotin labeled HCV core peptide (hepatitis C virus) (UniProt P26664); test: EIA; Ab 62.5 ng/mL captured on anti-mouse Fc; bt-peptide 500 ng/mL
[12] = molecular target: C113T109N biotin labeled HCV core peptide (hepatitis C virus); test: as above
[13] = molecular target: Mut1T110N biotin labeled HCV core peptide (hepatitis C virus); test: as above
[14] = molecular target: Mut6T110S biotin labeled HCV core peptide (hepatitis C virus); test: as above
[15] = molecular target: 92-133 biotin labeled HCV core peptide (hepatitis C virus) (UniProt P26664); test: EIA; Ab 0.977 ng/mL captured on anti-mouse Fc; bt-peptide 500 ng/mL
[16] = molecular target: C113T109N biotin labeled HCV core peptide (hepatitis C virus); test: as above
[17] = molecular target: Mut1T110N biotin labeled HCV core peptide (hepatitis C virus); test: as above
[18] = molecular target: Mut6T110S biotin labeled HCV core peptide (hepatitis C virus); test: as above
[19] = molecular target: 92-133 biotin labeled HCV core peptide (hepatitis C virus) (UniProt P26664); test: EIA; Ab 1.953 ng/mL captured on anti-mouse Fc; bt-peptide 500 ng/mL
[20] = molecular target: C113T109N biotin labeled HCV core peptide (hepatitis C virus); test: as above
[21] = molecular target: Mut1T110N biotin labeled HCV core peptide (hepatitis C virus); test: as above
[22] = molecular target: Mut6T110S biotin labeled HCV core peptide (hepatitis C virus); test: as above
[23] = molecular target: 92-133 biotin labeled HCV core peptide (hepatitis C virus) (UniProt P26664); test: EIA; Ab 3.906 ng/mL captured on anti-mouse Fc; bt-peptide 500 ng/mL
[24] = molecular target: C113T109N biotin labeled HCV core peptide (hepatitis C virus); test: as above
[25] = molecular target: Mut1T110N biotin labeled HCV core peptide (hepatitis C virus); test: as above
[26] = molecular target: Mut6T110S biotin labeled HCV core peptide (hepatitis C virus); test: as above
[27] = molecular target: 92-133 biotin labeled HCV core peptide (hepatitis C virus) (UniProt P26664); test: EIA; Ab 7.813 ng/mL captured on anti-mouse Fc; bt-peptide 500 ng/mL
[28] = molecular target: C113T109N biotin labeled HCV core peptide (hepatitis C virus); test: as above
[29] = molecular target: Mut1T110N biotin labeled HCV core peptide (hepatitis C virus); test: as above
[30] = molecular target: Mut6T110S biotin labeled HCV core peptide (hepatitis C virus); test: as above
[31] = molecular target: 92-133 biotin labeled HCV core peptide (hepatitis C virus) (UniProt P26664); test: EIA; Ab 15.625 ng/mL captured on anti-mouse Fc; bt-peptide 500 ng/mL
[32] = molecular target: C113T109N biotin labeled HCV core peptide (hepatitis C virus); test: as above
[33] = molecular target: Mut1T110N biotin labeled HCV core peptide (hepatitis C virus); test: as above
[34] = molecular target: Mut6T110S biotin labeled HCV core peptide (hepatitis C virus); test: as above

Substance: HCV C11-3 monoclonal antibody
- signal at 492 nm [1]: 1.01 OD 492 nm
- signal at 492 nm [2]: 0.116 OD 492 nm
- signal at 492 nm [3]: 0.11 OD 492 nm
- signal at 492 nm [4]: 0.807 OD 492 nm
- signal at 492 nm [5]: 1.68 OD 492 nm
- signal at 492 nm [6]: 0.0963 OD 492 nm
- signal at 492 nm [7]: 0.0857 OD 492 nm
- signal at 492 nm [8]: 1.83 OD 492 nm
- signal at 492 nm [9]: 0.0721 OD 492 nm
- signal at 492 nm [10]: 2.15 OD 492 nm
- signal at 492 nm [11]: 1.92 OD 492 nm
- signal at 492 nm [12]: 0.202 OD 492 nm
- signal at 492 nm [13]: 0.155 OD 492 nm
- signal at 492 nm [14]: 2.11 OD 492 nm
- signal at 492 nm [15]: 0.116 OD 492 nm
- signal at 492 nm [16]: 0.104 OD 492 nm
- signal at 492 nm [17]: 0.0755 OD 492 nm
- signal at 492 nm [18]: 0.101 OD 492 nm
- signal at 492 nm [19]: 0.134 OD 492 nm
- signal at 492 nm [20]: 0.114 OD 492 nm
- signal at 492 nm [21]: 0.0854 OD 492 nm
- signal at 492 nm [22]: 0.0964 OD 492 nm
- signal at 492 nm [23]: 0.183 OD 492 nm
- signal at 492 nm [24]: 0.0833 OD 492 nm
- signal at 492 nm [25]: 0.079 OD 492 nm
- signal at 492 nm [26]: 0.227 OD 492 nm
- signal at 492 nm [27]: 0.562 OD 492 nm
- signal at 492 nm [28]: 0.119 OD 492 nm
- signal at 492 nm [29]: 0.0966 OD 492 nm
- signal at 492 nm [30]: 0.344 OD 492 nm
- signal at 492 nm [31]: 1.01 OD 492 nm
- signal at 492 nm [32]: 0.116 OD 492 nm
- signal at 492 nm [33]: 0.11 OD 492 nm
- signal at 492 nm [34]: 0.807 OD 492 nm
